Assay results taken from patent US20250376528A1 (SYNTHEKINE, published 2025).

T1: extracellular domain of human IL10Rβ (amino acids 20-220, UniProtKB Q08334) (human, UniProt Q08334 20-220)
T1 construct: range 20-220; Antigen used for camel immunization and for phage selection; also called hIL-10Rβecd; hIL10-R2
T1 sequence (looked up): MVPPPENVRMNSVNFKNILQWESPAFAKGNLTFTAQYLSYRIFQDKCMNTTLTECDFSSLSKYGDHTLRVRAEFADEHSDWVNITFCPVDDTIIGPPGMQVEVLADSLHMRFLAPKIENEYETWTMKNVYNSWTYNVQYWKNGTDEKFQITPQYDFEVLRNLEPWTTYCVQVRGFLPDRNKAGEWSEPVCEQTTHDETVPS

T2: extracellular domain of human IL10Rα (amino acids 22-235, UniProtKB Q13651) (human, UniProt Q13651 22-235)
T2 construct: range 22-235; Antigen used for camel immunization and for phage selection; also called hIL-10Rαecd; hIL10-R1
T2 sequence (looked up): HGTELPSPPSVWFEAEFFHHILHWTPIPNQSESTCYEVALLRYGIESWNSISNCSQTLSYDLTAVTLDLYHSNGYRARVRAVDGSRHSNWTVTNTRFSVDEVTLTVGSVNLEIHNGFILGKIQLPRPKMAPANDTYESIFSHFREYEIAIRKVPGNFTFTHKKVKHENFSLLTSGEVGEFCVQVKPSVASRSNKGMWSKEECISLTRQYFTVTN

B1: anti-hIL-10Rβecd VHH SEQ ID NO 52 (VHH)
VHH: QVQLQESGGGSVQAGGSLRLSCAASGYTYSSYCMGWFRQAPGKEREGVAHIDSDGSTSYADSVKGRFTISKDNAKNTLYLQMNSLKPEDTAMYYCAADPIPGPGYCDGGPNKYWGQGTQVTVSS
notes: Camel VHH selected by phage display; also called Anti-IL10Rβ
B2: anti-hIL-10Rβecd VHH SEQ ID NO 57 (VHH)
VHH: QVQLQESGGGSVQTGGSLRLSCAASGYTYLRGCMGWFRQAPGKEREGVAVMDVVGDRRSYIDSVKGRFTISRDNAANSVYLQMDNLKPEDTAMYYCTAGPNCVGWRSGLDYWGQGTQVTVSS
notes: as for B1
B3: anti-hIL-10Rβecd VHH SEQ ID NO 56 (VHH)
VHH: QVQLQESGGGSVQAGGSLRLSCAASGYSYSSYCMGWFRQAPGKEREGVATIDSDGMTRYADSVKGRFTISKDNAKNTLYLQMNSLKPEDTAMYYCAAPLYDCDSGAVGRNPPYWGQGTQVTVSS
notes: as for B1
B4: anti-hIL-10Rαecd VHH SEQ ID NO 46 (VHH)
VHH: QVQLQESGGGSVQAGGSLRLSCAASGYTYSMYCMGWFRQAPGKEREGVAQINSDGSTSYADSVKGRFTISKDNAKNTLYLQMNSLKPEDTAMYYCAADSRVYGGSWYERLCGPYTYEYNYWGQGTQVTVSS
notes: Camel VHH selected by phage display; also called Anti-IL10Rα
B5: anti-hIL-10Rαecd VHH SEQ ID NO 50 (VHH)
VHH: QVQLQESGGGSVQAGGSLRLSCAASGYSNCSYDMTWYRQAPGKEREFVSAIHSDGSTRYADSVKGRFFISQDNAKNTVYLQMNSLKPEDTAMYYCKTDPLHCRAHGGSWYSVRANYWGQGTQVTVSS
notes: as for B4
B6: anti-hIL-10Rαecd VHH SEQ ID NO 49 (VHH)
VHH: QVQLQESGGGSVQAGGSLRLSCGASGYTYSSYCMGWFRQVPGKEREGVAVIDSDGSTSYADSVKGRFTISKDNGKNTLYLQMNSLKPEDTAMYYCAADLGHYRPPCGVLYLGMDYWGKGTQVTVSS
notes: as for B4
B7: anti-hIL-10Rαecd VHH SEQ ID NO 44 (VHH)
VHH: QVQLQESGGGSVQAGGSLRLSCAASRYLYSIDYMAWFRQSPGKEREPVAVIYTASGATFYPDSVKGRFTISQDNAKMTVYLQMNSLKSEDTAMYYCAAVRKTDSYLFDAQSFTYWGQGTQVTVSS
notes: as for B4
B8: anti-hIL-10Rαecd VHH SEQ ID NO 48 (VHH)
VHH: QVQLQESGGGSVQAGGSLRLSCTVSGYTYSSNCMGWFRQAPGKEREGVATIYTGGGNTYYADSVKGRFTISQDNAKNTVYLQMNNLKPEDTAMYYCAAEPLSRVYGGSCPTPTFDYWGQGTQVTVSS
notes: as for B4
B9: anti-hIL-10Rαecd VHH SEQ ID NO 45 (VHH)
VHH: QVQLQESGGGSVQAGGSLRLSCAASRFTYSSYCMGWFRQAPGKEREGVASIDSDGSTSYTDSVKGRFTISKDNAKNTLYLQMNSLKPEDTAMYYCALDLMSTVVPGFCGFLLSAGMDYWGKGTQVTVSS
notes: as for B4
B10: anti-hIL-10Rαecd VHH SEQ ID NO 47 (VHH)
VHH: QVQLQESGGGSVQAGGSLRLSCAVSGYAYSTYCMGWFRQAPGKEREGVAAIDSGGSTSYADSVKGRFTISKDNAKNTLYLRMNSLKPEDTAMYYCAAVPPPPDGGSCLFLGPEIKVSKADFRYWGQGTQVTVSS
notes: as for B4

Target: T1, extracellular domain of human IL10Rβ …
Test: phage display biopanning on the antigen, positive colonies by PE-ELISA
Experimental: (§1) Library biopanning was conducted to screen candidates against the antigens after library construction. Phage display technology was applied in this procedure. Positive colonies were identified by PE-ELISA.
(§2) Camels were immunized with the extracellular domains of the human IL10Rα (amino acids 22-235, UniProtKB Q13651, hIL-10Rαecd) and IL10Rβ (amino acids 20-220, UniProtKB Q08334, hIL-10Rβecd) weekly for seven weeks and PBMCs harvested on day 52. Phage display libraries were constructed and biopanning conducted as described in Example 1 above. 50 VHH sequences were obtained after selection on hIL10-R1 and 47 VHH sequences were obtained after selection on hIL10-R2. Sequences were clonotyped using germline assignment and CDR3 sequence similarity.

| Binder | binding result |
| --- | --- |
| B1 | binds |
| B2 | binds |
| B3 | binds |

Target: T2, extracellular domain of human IL10Rα …
Test: as above
Experimental: as §1, §2

| Binder | binding result |
| --- | --- |
| B4 | binds |
| B5 | binds |
| B6 | binds |
| B7 | binds |
| B8 | binds |
| B9 | binds |
| B10 | binds |
